In patent US11661461B2, “Phospho-Rab antibodies, assays and methods of use thereof” (Denali Therapeutics Inc., priority 2017, dated 2023):
Entries after “also recorded” stand apart in the source; their conditions may differ.

T1: endogenous phosphorylated Rab8a in human PBMC (Homo sapiens, UniProt P61006)
T1 construct: Strong endogenous phosphorylated Rab10 or phosphorylated Rab8a in human PBMC; host or cells: human PBMC
T1 sequence (P61006 1-207): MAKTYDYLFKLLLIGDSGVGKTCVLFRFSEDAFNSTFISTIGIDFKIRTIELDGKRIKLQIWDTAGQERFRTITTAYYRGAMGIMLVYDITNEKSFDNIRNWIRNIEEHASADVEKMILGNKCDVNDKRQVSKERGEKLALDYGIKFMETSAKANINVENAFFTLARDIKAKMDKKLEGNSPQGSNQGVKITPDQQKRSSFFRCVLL

T2: endogenous phosphorylated Rab10 in human PBMC (Homo sapiens, UniProt P61026)
T2 construct: Strong endogenous phosphorylated Rab10 or phosphorylated Rab8a in human PBMC; host or cells: human PBMC
T2 sequence (P61026 1-200): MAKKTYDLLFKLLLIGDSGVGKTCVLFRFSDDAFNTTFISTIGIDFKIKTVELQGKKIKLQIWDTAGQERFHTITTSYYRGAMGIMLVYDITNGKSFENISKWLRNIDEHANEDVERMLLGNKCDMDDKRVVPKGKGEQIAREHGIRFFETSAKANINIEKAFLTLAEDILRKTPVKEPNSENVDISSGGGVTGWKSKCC

T3: phosphorylated Rab10 in lysates of HEK cells overexpressing LRRK2 (Homo sapiens, UniProt P61026)
T3 construct: expressed in transfected cells; host or cells: HEK cells overexpressing LRRK2
T3 sequence (P61026 1-200): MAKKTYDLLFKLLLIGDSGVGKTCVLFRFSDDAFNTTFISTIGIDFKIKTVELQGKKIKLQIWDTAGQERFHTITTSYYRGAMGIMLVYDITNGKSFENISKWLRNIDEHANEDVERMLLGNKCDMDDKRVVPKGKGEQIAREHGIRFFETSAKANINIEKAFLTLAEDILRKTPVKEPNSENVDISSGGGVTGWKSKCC

T4: pT73-Rab10 (Homo sapiens, UniProt P61026)
T4 construct: Strong endogenous phosphorylated Rab10 or phosphorylated Rab8a in human PBMC; host or cells: human PBMC
T4 sequence (P61026 1-200): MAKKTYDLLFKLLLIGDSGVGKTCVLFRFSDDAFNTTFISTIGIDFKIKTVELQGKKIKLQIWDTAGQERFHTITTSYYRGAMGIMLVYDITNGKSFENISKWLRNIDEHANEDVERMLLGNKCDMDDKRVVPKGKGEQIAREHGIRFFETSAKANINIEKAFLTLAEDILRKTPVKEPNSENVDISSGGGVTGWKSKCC


Assays:
LRRK2 = assay: 7 days of dosing in cynomolgus monkeys, pT73-Rab10 and pS935-LRRK2 western blot; assay type: in vivo, cynomolgus monkey; settings: 45 mg/kg daily
Experimental: Phosphorylated Rab10 was also tested in cynomolgus monkey lung and kidney tissue following 7 days of dosing with a LRRK2 inhibitor. Cynomolgus monkeys were dosed daily with the LRRK2 Inhibitor C at a dose of 45 mg/kg. […] Signals from dosed groups were normalized to vehicle control group. Data were presented as mean with SEM.

[1] = target: T1, endogenous phosphorylated Rab8a in human PBMC; assay: Western blot of human PBMC with anti-pT72-Rab8a antibodies; assay type: binding; settings: for detection of endogenous phosphorylated Rab8a signals in human PBMC by western blot: antibody at 1 ug/ml; for Western blot Human PBMC Ratio of DMSO/LRRK2 inhibitor A (mean ± SEM): band intensity normalized with Actin control for each of DMSO and LRRK2 inhibitor A, antibody 1 ug/ml
[2] = target: T2, endogenous phosphorylated Rab10 in human PBMC; assay: Western blot of human PBMC with anti-pT73-Rab10 antibodies; assay type: binding; settings: for detection of endogenous phosphorylated Rab10 signals in human PBMC by western blot: antibody at 1 ug/ml; for Western blot Human PBMC Ratio of DMSO/LRRK2 inhibitor A (mean ± SEM): band intensity normalized with Actin control for each of DMSO and LRRK2 inhibitor A, antibody 1 ug/ml
[3] = target: T3, phosphorylated Rab10 in lysates of HEK cells overexpressing LRRK2; assay: Sandwich ELISA (diagnostic), HEK cells overexpressing LRRK2; assay type: binding; settings: for Sandwich ELISA (diagnostic), Ratio: DMSO / LRRK2 inhibitor A RLU; for Sandwich ELISA (diagnostic) HEK cells overexpressing LRRK2, DMSO (RLU mean ± SD): DMSO treated cells; for Sandwich ELISA (diagnostic) HEK cells overexpressing LRRK2, LRRK2 inhibitor A (RLU mean ± SD): cells treated with LRRK2 inhibitor A
Experimental: Sandwich ELISA (Diagnostic) with Anti-Phospho-Rab10 Antibody as the Capture Antibody:
ELISA plates were prepared by coating white Nunc MaxiSorp 384 well plates (Thermo Fisher #460372/Sigma #P6491) with capture antibody for 1 hour at room temperature on a shaking platform. The capture antibody was purified anti-phospho-Rab10 clone 19-4 diluted to 1 ug/mL in carbonate-bicarbonate buffer, and 15 uL/well of coating solution was added to the plate before incubation. Plates were then washed 3× with TBST on a BioTek plate washer. For all subsequent blocking/incubation steps, Pierce Starting Block T20 (TBS) was used (Thermo Fisher #37543). Plates were blocked […] in this solution using 80 uL/well and washed 3× as before. Afterwards samples of cell lysates were added (neat with no dilution) using 30 uL/well and incubated 1 hour at room temperature on a shaking platform. After another 3× wash detection antibody (Creative Diagnostics DCABH 13141, or Abcam, ab104859, 2 ug/mL) was added using 30 uL/well. After 60 minute incubation at room temperature and washing 3×, the secondary anti-species conjugate was added (anti-rabbit HRP antibody (Jackson ImmunoResearch 111-035-144) diluted 1:20000 in assay diluent) at 30 uL/well. After a 60 minute incubation, plates were washed 3× as before. The HRP substrate (Supersignal ELISA Femto HRP substrate—Thermo Fisher #37075) was prepared during this time by mixing both components and equilibrating to room temperature. 50 uL/well of substrate was added to plates, which then were covered and briefly incubated for 1-2 minutes on a shaker platform. Afterwards plates were read on the Synergy plate reader to measure relative light units (RLU).
Sandwich ELISA (Diagnostic) with Anti-Rab10 (Total) Antibody as the Capture Antibody:
ELISA plates were prepared by coating white Nunc MaxiSorp 384 well plates (Thermo Fisher #460372/Sigma # P6491) with capture antibody overnight at 4° C. on a shaking platform. The capture antibodies (anti-Rab10 antibody from either Creative Diagnostics, DCABH-13141, or Abcam, ab104859) were diluted to […] (or 1:100 if the concentration not known) in carbonate-bicarbonate buffer, and 15 uL/well of coating solution was added to the plate before incubation. After this plates were washed 3× with TBST on a BioTek plate washer. For all subsequent blocking/incubation steps, Pierce Starting Block (TBS) (no Tween added) was used (Thermo Fisher #37542). Plates were blocked for 1 hour at room temperature in this solution using 80 uL/well and washed 3× as before. Afterwards samples were added (with lysates being diluted 1:20 in the assay diluent) using 30 uL/well and incubated 2 hours at room temperature on a shaking platform. After another 3× wash detection antibodies were added (diluted to 1 ug/mL for purified antibodies or 1:2 for supernatants) using 30 uL/well. After 90 minute incubation at room temperature and washing 3× the secondary anti-species conjugate was added (anti-rabbit HRP antibody (Jackson ImmunoResearch 111-035-144) diluted 1:20000 in assay diluent) at 30 uL/well. After a 45 minute incubation plates were washed 3× as before. The HRP substrate (Supersignal ELISA Femto HRP substrate—Thermo Fisher #37075) was prepared during this time by mixing both components and equilibrating to room temperature. 50 uL/well of substrate was added to plates, which then were covered and briefly incubated for 1-2 minutes on a shaker platform. Afterwards plates were read on the Synergy plate reader to measure relative light units (RLU).

pT73-Rab10 = target: T4, pT73-Rab10; assay: Phospho-Rab10 MSD assay (clone 19-4 as capture antibody); assay type: binding; settings: anti-total Rab10 antibody for detection
[4] = normalized to actin and vehicle control group, mean with SEM, N = 4
[5] = normalized to vinculin and vehicle control group, mean with SEM, N = 4

Molecule | Western blot Human PBMC Ratio of DMSO/LRRK2 inhibitor A (mean ± SEM) [1] | Western blot Human PBMC Ratio of DMSO/LRRK2 inhibitor A (mean ± SEM) [2] | Sandwich ELISA (diagnostic), Ratio [3] | Sandwich ELISA (diagnostic) HEK cells overexpressing LRRK2, DMSO (RLU mean ± SD) [3] | Sandwich ELISA (diagnostic) HEK cells overexpressing LRRK2, LRRK2 inhibitor A (RLU mean ± SD) [3] | detection of endogenous phosphorylated Rab8a signals in human PBMC by western blot [1] | also measured
Cc1nn(C(C)(C)c2ncn(C)n2)cc1Nc1ncc(C(F)(F)F)c(C2CC2)n1 [LRRK2 Inhibitor C, 4-cyclopropyl-N-(3-methyl-1-(2-(1-methyl-1H-1,2,4-triazol-3-yl)propan-2-yl)-1H-pyrazol-4-yl)-5-(trifluoromethyl)pyrimidin-2-amine] | – | – | – | – | – | – | dephosphorylation of pT73-Rab10 and pS935-LRRK2 (LRRK2; lung and kidney): significant dephosphorylation; pT73-Rab10, Kidney (LRRK2; [4]): 0.547 ± 0.125; pT73-Rab10, Lung (LRRK2; [4]): 0.189 ± 0.0562; pS935-LRRK2, Kidney (LRRK2; [5]): 0.0563 ± 0.0147; pS935-LRRK2, Lung (LRRK2; [5]): 0.102 ± 0.0215
Clone 71-3: anti-phosphorylated (pT72) Rab8a rabbit monoclonal antibody; VH SEQ ID NO:71, VL SEQ ID NO:75 (antibody, V domains shown) VH: METGLRWLLLVAVLKGVQCQSVEESGGRLVTPGTPLTLTCTASGFSLNVYYMTWVRQAPGKGLDWIGIINTDITVHYANWARGRFTISKTSTTVDLKITSPTTEDTATYFCARARNSAWMDIWGPGTLVTVSL VL: MDTRAPTQLLGLLLLWLPGATFAAVLTQTPSPVSAAVGGTVTINCQSDWSVYNNNLAWYQHKPGQPPKLLIYKTSTLASGVPSRFRGSGSGTQFTLTISDVQCDDTATYYCAGGYYRDSDTAFGGGTEVVVK | 2.61 ± 0.42 | – | – | – | – | detected endogenous phosphorylated Rab signals | –
Clone 20: anti-phosphorylated (pT72) Rab8a rabbit monoclonal antibody; VH SEQ ID NO:63, VL SEQ ID NO:66 (antibody, V domains shown) VH: METGLRWLLLVAVLKGVQCQSVEESGGRLVTPGTPLTLTCTVSGFSLSSYAMGWVRQAPGEGLEYFGIINTGGSAYYTNWAKGRFTISRTSTTVHLKITSPTTEDTATYFCARIAGDTRYYGMDPWGPGTLVTVSS VL: MDTRAPTQLLGLLLLWLPGATFAAVLTQTPSPVSAAVGGTVSISCQSSKSVRNNNYLAWYQQKPGQPPKLLIYGASTLASGVPSRFKGSGSGTQFTLTISDVQCDDAATYYCAGGYDGGSDDAFGGGTEVVVK | 3.50 ± 0.52 | – | – | – | – | – | detection of endogenous phosphorylated Rab8a signals in human PBMC by western blot ([1]; listed as 20): detected endogenous phosphorylated Rab signals
Clone 19-4: anti-phosphorylated (pT73) Rab10 rabbit monoclonal antibody; VH SEQ ID NO:17, VL SEQ ID NO:18 (antibody, V domains shown) VH: METGLRWLLLVAVLKGVQCQSVEESGGRLVTPGTPLTLTCTVSGFSLSSYAMVWVRQAPGKGLEYIGLISRSGVTYYATWAKGRFTISKASTTVDLKIASPTTGDTATYFCVRDYDSAGWSGFTIWGPGTLVTVSA VL: MDTRAPTQLLGLLLLWLPGAICDPVMTQTPSSTSAAVGGTVTINCQSSQSVYGNNYLSWYQQKPGQPPKLLIYKASTLASGVPSRFVGSGSGTQFTLTISDLECDDAATYYCAGAASDTRFFGGGTELVVN | – | 2.95 ± 0.68 | 37.40 | 80524 ± 7835 RLU | 2153 ± 774 RLU | – | detection of endogenous phosphorylated Rab10 signals in human PBMC by western blot ([2]; listed as 19-4): detected endogenous phosphorylated Rab signals; also recorded: Detection of phosphorylated Rab10; pRab10 signals in phospho-Rab10 MSD assay (pT73-Rab10; human A549 cells, listed as 19-4): showed pRab10 signals; pRab10 signals in phospho-Rab10 MSD assay (pT73-Rab10; human PBMCs): showed pRab10 signals

More lines, main results first:

Western blot Human PBMC Ratio of DMSO/LRRK2 inhibitor A (mean ± SEM) [1] | Western blot Human PBMC Ratio of DMSO/LRRK2 inhibitor A (mean ± SEM) [2] | Sandwich ELISA (diagnostic), Ratio [3] | Sandwich ELISA (diagnostic) HEK cells overexpressing LRRK2, DMSO (RLU mean ± SD) [3] | Sandwich ELISA (diagnostic) HEK cells overexpressing LRRK2, LRRK2 inhibitor A (RLU mean ± SD) [3] | Molecule | detection of endogenous phosphorylated Rab8a signals in human PBMC by western blot [1] | also measured
2.26 ± 0.12 | – | – | – | – | Clone 86-9: anti-phosphorylated (pT72) Rab8a rabbit monoclonal antibody; VH SEQ ID NO:81, VL SEQ ID NO:85 (antibody, V domains shown) VH: METGLRWLLLVAVLKGVQCQSVEESGGRLVTPGTPLTLTCTVSGFSLSSYYITWVRQAPGKGLEWLGIMNAGTTVHYANWVKGRFAISKTSTTVDLKITSPTTEDTATYFCARARNSVWMDIWGPGTLVTVSL VL: MDTRAPTQLLGLLLLWLPGATLAAVLTQTPSPVSGAVGGSVTVNCQSDKSVYRDNLAWYQQKPGQPPKLLIYKASTLASGVPSRFRGSGAGTQFTLTISDVQCDDAATYFCAGGYSSDSDTAFGGGTEVVVK | detected endogenous phosphorylated Rab signals | –
– | 2.48 ± 0.31 | 33.74 | 473585 ± 44210 RLU | 14037 ± 1627 RLU | Clone 81-11: anti-phosphorylated (pT73) Rab10 rabbit monoclonal antibody; VH SEQ ID NO:21, VL SEQ ID NO:25 (antibody, V domains shown) VH: METGLRWLLLVAVLKGVQCQSVEESGGRLVTPGTPLTLTCTVSGFSLSSYAMSWVRQAPGKGLEYIGLFNDVGIAYYANWAKGRFTFSKTSTTVDLKITSPTTEDTATYFCARVGGTTRVYGMDLWGPGTLVTVSS VL: MDTRAPTQLLGLLLLWLPGATFAAVLTQTPSPVSAAVGGTVSISCQSSKSVRHNNYLSWYQQKPGQRPKLLIYGASTLASGVPSRFSGSGSGTEFTLTISDVQCDDAATYYCAGGYSGGGDDAFGGGTEVVVE | – | detection of endogenous phosphorylated Rab10 signals in human PBMC by western blot [2]: detected endogenous phosphorylated Rab signals
